Reference: IntAct's records for PubMed 25783203

B1: Vacuolar protein sorting-associated protein 33A (Homo sapiens), Q96AX1 (parent)
chain: MAAHLSYGRVNLNVLREAVRRELREFLDKCAGSKAIVWDEYLTGPFGLIAQYSLLKEHEVEKMFTLKGNRLPAADVKNIIFFVRPRLELMDIIAENVLSEDRRGPTRDFHILFVPRRSLLCEQRLKDLGVLGSFIHREEYSLDLIPFDGDLLSMESEGAFKECYLEGDQTSLYHAAKGLMTLQALYGTIPQIFGKGECARQVANMMIRMKREFTGSQNSIFPVFDNLLLLDRNVDLLTPLATQLTYEGLIDEIYGIQNSYVKLPPEKFAPKKQGDGGKDLPTEAKKLQLNSAEELYAEIRDKNFNAVGSVLSKKAKIISAAFEERHNAKTVGEIKQFVSQLPHMQAARGSLANHTSIAELIKDVTTSEDFFDKLTVEQEFMSGIDTDKVNNYIEDCIAQKHSLIKVLRLVCLQSVCNSGLKQKVLDYYKREILQTYGYEHILTLHNLEKAGLLKPQTGGRNNYPTIRKTLRLWMDDVNEQNPTDISYVYSGYAPLSVRLAQLLSRPGWRSIEEVLRILPGPHFEERQPLPTGLQKKRQPGENRVTLIFFLGGVTFAEIAALRFLSQLEDGGTEYVIATTKLMNGTSWIEALMEKPF
partner: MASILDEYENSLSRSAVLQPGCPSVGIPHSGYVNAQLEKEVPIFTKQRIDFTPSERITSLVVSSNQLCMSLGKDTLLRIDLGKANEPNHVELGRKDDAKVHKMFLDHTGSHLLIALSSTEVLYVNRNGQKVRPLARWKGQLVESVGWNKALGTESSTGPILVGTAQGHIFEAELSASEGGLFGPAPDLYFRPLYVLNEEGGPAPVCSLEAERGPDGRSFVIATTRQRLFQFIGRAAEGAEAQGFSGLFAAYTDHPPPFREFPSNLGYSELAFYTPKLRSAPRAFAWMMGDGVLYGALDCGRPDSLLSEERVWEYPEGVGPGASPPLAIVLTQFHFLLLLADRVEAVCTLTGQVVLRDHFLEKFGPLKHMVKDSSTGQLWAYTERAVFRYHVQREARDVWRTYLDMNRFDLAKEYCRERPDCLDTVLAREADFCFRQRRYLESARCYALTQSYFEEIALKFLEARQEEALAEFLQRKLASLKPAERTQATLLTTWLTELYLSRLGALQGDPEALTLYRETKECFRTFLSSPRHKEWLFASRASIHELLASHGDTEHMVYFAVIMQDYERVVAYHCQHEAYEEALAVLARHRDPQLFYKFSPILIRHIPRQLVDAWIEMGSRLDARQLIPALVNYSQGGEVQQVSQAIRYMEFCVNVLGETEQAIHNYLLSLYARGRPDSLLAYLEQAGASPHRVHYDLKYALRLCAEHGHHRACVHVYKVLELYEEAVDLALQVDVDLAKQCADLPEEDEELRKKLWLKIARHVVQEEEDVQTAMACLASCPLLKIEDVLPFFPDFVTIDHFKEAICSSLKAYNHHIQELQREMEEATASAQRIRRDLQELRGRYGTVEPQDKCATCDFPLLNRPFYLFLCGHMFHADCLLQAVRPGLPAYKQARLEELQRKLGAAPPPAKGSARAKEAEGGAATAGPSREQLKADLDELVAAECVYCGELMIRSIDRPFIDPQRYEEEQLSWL

Variants of: B1
Conditions: with vps18_human VPS18, Q9P253

Effect of a mutation on the interaction, disrupting interaction:
Y438D;I441K
K429D;I441K
K429D;Y438D
